Source: the domain aggregation screens of Martell et al. (2025)

Experiment: soluble fraction after stress (log2 fold change); higher = more stays soluble; pooled small domains, quantitative proteomics
Conditions: stress: pH 4
Outline: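 Values are on a log2 scale, where higher means more of the domain stayed soluble after pH 4 stress. They are fold changes in the soluble amount of each domain from pooled custom libraries, measured by high-throughput quantitative proteomics. The fold change is taken to reflect aggregation propensity.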

Q: With “HMSAERFDFRIGPELAGKRFDQALAEALPQFSRSRLSTWIKDGRATLNGATMRPKDSVHAGDTVVVNAE” as the sequence, how does the “soluble fraction (log2)” value read?
A: 0.255

Q: With “HMSAEVEVPDVVGRQVALAVQLIETKKLRVNVAETYDAKVPPGQVISQSPEAGMKVKEERVITIYVSR” as the sequence, how does the “soluble fraction (log2)” value read?
A: 0.153

Q: Which “soluble fraction (log2)” value does the source give for “HMSAGISVADVTNRTYDEGYNTLTAQHLLVNKVYEANETIPLDTIIRTDPVAGTKVPDNTSITVYVSSGK” here?
A: -0.025

Q: For “HMSAGPQGRTPREDELTVGTKVYVSRVGASGVVSSDVSRGKVVVQVGALRLTAAVSELLLLDG”, which “soluble fraction (log2)” value is on record?
A: -0.472

Q: With “HMSAGYTYQNYQQDLKSGNVQNIHIYLSEEMYSGNVKVIYKNNKSVTFTVTDVTIAEAEARQVGISPIIYE” as the sequence, how does the “soluble fraction (log2)” value read?
A: -0.504

Q: Which “soluble fraction (log2)” value does the source give for “HMSAHDLQVVLRWIGTDEPMTDQRYRITTEDGRTFEGRTDDAGLTERVASTIPFGRYSIEALD” here?
A: -1

Q: Which “soluble fraction (log2)” value does the source give for “HMSAIEIDAEKILNYLTDRGGKMPYGDTTAPEVIKDKFNISKAAFKRALGFLLRSNKIEQIDGWTYI” here?
A: -0.375

Q: With “HMSAIKSVTTQLDNTKLRTGPDVSYQYTQSYPANTKLTYINKSGTWYQVKDADGNTGYVASWVVTPSE” as the sequence, how does the “soluble fraction (log2)” value read?
A: 0.387

Q: With “HMSALIGAHTLERIDSRDFEGVVMAWLPKRDGYDSLYKIYHIEDGDFEELDDREVQAAISLFIEGT” as the sequence, how does the “soluble fraction (log2)” value read?
A: -0.388

Q: Which “soluble fraction (log2)” value does the source give for “HMSAPAMTLDSIRSLLNDRDPWVVTQTVEWLVGLGPQVKTILETLTLESSDAARQAQNALDRINVRNYP” here?
A: -1.08

Q: Which “soluble fraction (log2)” value does the source give for “HMSAPNPGQMHSWTDTQGRTLQATFIKADATTVTLNWNGRIVPIPLANLNAASQKLARELASAS” here?
A: -0.0969

Q: Which “soluble fraction (log2)” value does the source give for “HMSAPRRGETTAASLNLRAGPATDADILAQLPERTPLRVLQEDGEWLRVETHGNEGFVHRQFVAIPGDEP” here?
A: -0.347

Q: For “HMSARRHAVKHLDANQLQTRVARMLSEFGLTAKVSKDPNSNALIIDGAPEAQRIAAQLITTIDKE”, which “soluble fraction (log2)” value is on record?
A: 0.063

Q: Which “soluble fraction (log2)” value does the source give for “HMSASSDATRQRVLRAAEQLFGAKGVENVSLREMTTLAGVNLAAVNYHFGSKDALAEAVFEALSER” here?
A: 0.138

Q: For “HMSASSEALKTAVRKVLLNNRMTQDRMARDAGLSGSALSQWLHGKYQGDVPALEGRLAAWLADTQAS”, which “soluble fraction (log2)” value is on record?
A: 0.132

Q: Which “soluble fraction (log2)” value does the source give for “HMSASSTAPGSVTLRGAILTAWTAAGGERSKMGLPVGYEVRQADGTVTQTFEKGRISVSPTGTATI” here?
A: -0.0391

Q: Which “soluble fraction (log2)” value does the source give for “HMSAVNLNDDEKAVYKSIKSGIRSLDELSLRTGMKIYELMAITVSLEMKGLVTKSPDGTLDAT” here?
A: -0.0308

Q: Which “soluble fraction (log2)” value does the source give for “HMSDAKKRAFSKDEILYSLKNRPFTSFDIESLFDDESKKTFIGLLDKGEISEKKVAGTIFYYLR” here?
A: -0.461

Q: With “HMSDEEAISKLPGVGPAILEKLKEAGYNDIMTIAVDSPKNLAELAEIGEPTAAKIIAAAKKAAD” as the sequence, how does the “soluble fraction (log2)” value read?
A: -0.109

Q: Which “soluble fraction (log2)” value does the source give for “HMSDIDIDVENDRAALAIAGGKLNHLVGARGEVLDALQELTRLAVQTSLGERSRLMLDIDNFRSD” here?
A: 0.0463

Q: For “HMSDIHARIAAALAALTSPEKIHDLVVDDDGKVSFTFHLTREDPATLVRDARKAVQAVDGVRDVKVNVVDP”, which “soluble fraction (log2)” value is on record?
A: 0.00539

Q: For “HMSDKEDIDKYLLTYGDLLFNRTNSSEWVGKTAIYRGEVSAIYAGYLIRIRSFLDAEYLNSVMNSKYA”, which “soluble fraction (log2)” value is on record?
A: -0.485

Q: Which “soluble fraction (log2)” value does the source give for “HMSDKTSLTDDDKALINSMLPDYDKYPSVAKLQAVEIAKSSSKMATLLMLDERYNETVSEALE” here?
A: -1.14

Q: Which “soluble fraction (log2)” value does the source give for “HMSDLGEIEKIVDEVLAENITKVQEYKDGKKGLMGMFMGQIMKKSGGKADPKIANQLLTEKL” here?
A: 0.138

Q: For “HMSDNHYLLEIFLADLKSDEKFIRELAIFQLHHHIESDKVRAELKAAAETESDPYLKGMIESLLSSTS”, which “soluble fraction (log2)” value is on record?
A: -1.2

Q: For “HMSDNYYSILGIETDATTDMIKRAYRRLSLELHPDRTKDNPILTEKYKKVNEAYGVLNDNDRKHIYDLQNI”, which “soluble fraction (log2)” value is on record?
A: -1.37

Q: With “HMSDPELAIPRVVGLSGNDAQAALVKAGFSAVTVVTVKNSEVTSEQVTHVVPAEGAKAKASTPVTVVVSSS” as the sequence, how does the “soluble fraction (log2)” value read?
A: 0.15

Q: Which “soluble fraction (log2)” value does the source give for “HMSDRQLKRQANILYTTRKLASKVGYDGLTMRGLAEASEVSPKTLYNLFSSKDELLAAALEDLVGIV” here?
A: 0.0711

Q: Which “soluble fraction (log2)” value does the source give for “HMSDTFTITTESGRIDKIITAHETTHTRSQVQKWLQDGLVTVNGNPVKANFKVTAGDVVTVTIPEVK” here?
A: -0.0373

Q: Which “soluble fraction (log2)” value does the source give for “HMSDTMTVTNVKYAIYLRSTPSEASDANIIMEIPVGSKVTYLDTPNNTFYKISYGGTVGYSKQIYLTF” here?
A: -0.482

Q: Which “soluble fraction (log2)” value does the source give for “HMSDVLPEAILERRLVKKGNRAVPQVLIKWTKLPATSATWEDFYVLQQRFPTALAWGQAPSPGGQM” here?
A: -0.213

Q: Which “soluble fraction (log2)” value does the source give for “HMSDVTPDVVRALRKRLKLTQVQFGEIFGMTSKKVSAWEHGKAEPTEEQKQKIQSLLKENNEQ” here?
A: 0.141

Q: With “HMSEATTVNYKYAVTISDLRIRKGPGTNYGSVGYTGKGVFTIVAEKGGWGKLKSGAGWISLNSKYGHKVS” as the sequence, how does the “soluble fraction (log2)” value read?
A: -0.314

Q: With “HMSEEAMVSNFRQQEILELARKDGKVTVDGLAELYDVTVQTIRRDLSDLADSGRLKRVHGGAVVPS” as the sequence, how does the “soluble fraction (log2)” value read?
A: -0.465

Q: Which “soluble fraction (log2)” value does the source give for “HMSEFGENLKKLRTARDLTQQELGAKVGLSKAVVSKYENGLGYPTFDVLIRIAAYFGVTTDYLLGV” here?
A: -0.309

Q: Which “soluble fraction (log2)” value does the source give for “HMSEFSDRFRLLKDESGATLKELSEQLDITVPNLSYYMKGREPSYDILIKIADYFGVTTDWLIGRTDER” here?
A: -0.643

Q: Which “soluble fraction (log2)” value does the source give for “HMSEILQLINKIDKKLEKGYTFANISRNHYEKIYKEEILNLYKTSKLKGEAEDSIKEVLESLLGDLRKP” here?
A: 0.368

Q: Which “soluble fraction (log2)” value does the source give for “HMSEISAEAGKRIRYFRKSRSMTLEELAAVIHKSKATLSKYETGEISIDLDTLYDLAVALQVRAEQLLPAS” here?
A: -0.764

Q: For “HMSEITMMQMEIPEGHNWENRLVKDVSMPTGSLAVMIKRHGETLIPGGDTRILAGDTIVLSVPAYESG”, which “soluble fraction (log2)” value is on record?
A: -1.03

Q: For “HMSEIYVDDINRKILYLLSQGIKTKSLLEHIPLSMSGIEKRKKQLKMLFSVEDGKDETLLEMAKEKGF”, which “soluble fraction (log2)” value is on record?
A: -1.07

Q: For “HMSEKAQSENEDLIKILALLIHAAKIDENYSEKEKKLIISFAEMSSNKKLDREQINSLVDKAEQYEK”, which “soluble fraction (log2)” value is on record?
A: -0.507

Q: With “HMSEKLLTLNEISEKLRVSRHTVQAWVSPSSPNHRPEFSSLARHAGRKTVFLESDVDAWLAQRR” as the sequence, how does the “soluble fraction (log2)” value read?
A: -0.385

Q: Which “soluble fraction (log2)” value does the source give for “HMSEKYPPIDWNNIKTGQSVLIKDINQVVSLTKLPDSKGFAEVQMGLIKTKIKAEKLAATDKKPNK” here?
A: -0.0179

Q: With “HMSELDSYIGARLRMRRLMLGMSQEALGEKLSLTFQQIQKYEKGTNRVSASRLYELAQVLDVPVQFFFDGA” as the sequence, how does the “soluble fraction (log2)” value read?
A: -1.39

Q: Which “soluble fraction (log2)” value does the source give for “HMSENDTILAKFASIINNKSLELVIFPDTAYLKGQVSTPEDKARAETVAQSLLGSKPLISLIEFE” here?
A: -0.167

Q: Which “soluble fraction (log2)” value does the source give for “HMSENPLTSREIEIVQLLANGKTTKSIAEELHLSNGTIRNYVSIVLDKLNVSNRIEAIRKALDKGWL” here?
A: -0.0724

Q: For “HMSEPQEISYSDFIEQVNRNEIRQVEFDGQHEYLTVIRKDTSRFKVIIPAPDPRLLDDLMEHDVEIVGKE”, which “soluble fraction (log2)” value is on record?
A: 0.0554

Q: For “HMSEQYEQIQLALKTLTQDEQDIVRLVVVEGASLRTAGKNLGVSAMTIQRRLKRALARLRDLLAS”, which “soluble fraction (log2)” value is on record?
A: -0.858

Q: Which “soluble fraction (log2)” value does the source give for “HMSESKYKMIKNWIKSKILDGTLVPNQKIYSESELMEIFDVSRHTVRLAIGELVSEGYLFKRQGTGTFVTQ” here?
A: -0.763

Q: Which “soluble fraction (log2)” value does the source give for “HMSETTSRVLQLLGLLQARRVWTGQELADRLGVTGRSVRRDIERLRDLGYPVHASKGRDGGYQLGA” here?
A: -0.222

Q: With “HMSEYILATNDGEFLRITSYSKEEGGMLVWEKTSSIVSAEHKVIPYSQIINIKDRNGDVVWDKD” as the sequence, how does the “soluble fraction (log2)” value read?
A: -0.0816

Q: For “HMSEYNPGIYRVTDPALNIRTGPGVEYPVVGVIKDQGSYTITEIRNKSWGRLLSGAGSTAIKHIVFT”, which “soluble fraction (log2)” value is on record?
A: -0.173

Q: With “HMSFEITGDELILRFVKDKGGATTEQIRKHWEASNRGGKSDNNLTNLVKSGKLLRSKDPNGPGSLYTAS” as the sequence, how does the “soluble fraction (log2)” value read?
A: -0.749

Q: Which “soluble fraction (log2)” value does the source give for “HMSFESMGLTPRQADVLTLLLQGKSNKDIARRLVLSVETVKDHVQAVLRALGVSSRTQAVLAVGQMTQQ” here?
A: -0.37

Q: For “HMSFGYFQLRAKDPQKLKSVLEKIPQIQSIKEEKGDLIGYLNADMEAEELSQKLAAAKIFVTHMAKKK”, which “soluble fraction (log2)” value is on record?
A: 0.216
